Data on one protein can be found in patent publication US6043072, “Nucleic acids encoding Taxus geranylgeranyl diphosphate synthase, and methods of use” (Washington State University Research Foundation, dated 2000).

The series deals with the molecule itself. Description: gel permeation chromatography on calibrated Superdex G-75 (about 60,000 against the predicted monomer of 32.1 kDa) with SDS-PAGE; self-association (homodimer).

Experimental: After centrifugation as above, the cell pellet was resuspended in 80 ml of ice cold 50 mM Tris (pH 7.6) containing 10% (v/v) glycerol, 10 mM MgCl_2, 5 mM DTT, and 1 μg/ml leupeptin (extraction/assay buffer). All subsequent operations were conducted at 0–4° C. Cells were disrupted with 150 ml glass beads using a Biospec Bead-Beater operated at 90 V for 5 min, and the resulting debris was removed by centrifugation at 3000 g for 20 min to yield a supernatant that was further clarified by centrifugation at 31,000 g for 20 min. The resulting supernatant was used as the enzyme source.

B1: T. canadensis GGPP synthase Tr^295 truncated protein (enzyme)
chain: FDFNEYMKSKAVAVDAALDKAIPLEYPEKIHESMRYSLLAGGKRVRPALCIAACELVGGSQDLAMPTACAMEMIHTMSLIHDDLPCMDNDDFRRGKPTNHKVFGEDTAVLAGDALLSFAFEHIAVATSKTVPSDRTLRVISELGKTIGSQGLVGGQVVDITSEGDANVDLKTLEWIHIHKTAVLLECSVVSGGILGGATEDEIARIRRYARCVGLLFQVVDDILDVTKSSEELGKTAGKDLLTDKATYPKLMGLEKAKEFAAELATRAKEELSSFDQIKAAPLLGLADYIAFRQN
Consider B1, for which the binding result is given as “binds”.
